Results reported in patent US9217013B2, “Treatment of amyloidoses using myelin basic protein and fragments thereof” (The Research Foundation for the State University of New York, priority 2008, dated 2015).

What was measured:
Aβ42WT = Aβ42WT (Homo sapiens, UniProt P05067); assay: Co-immunoprecipitation of MBP with Aβ42WT; type: binding
Protocol: (§1) AP peptides were resuspended in Me2SO to 2.5 mM and used at 10.8 μM. MBP was used at 1.56 μM. Proteins were combined in 250 μl of incubation buffer (PBS, 0.05% Tween 20, and 1% BSA). Anti-MBP mAb 382 was added to each sample mixture and incubated for 1 h at 4° C. with rocking. After incubation, 20 μl of washed GammaBind protein G-Sepharose beads (Amersham Biosciences) were added to each mixture, followed by incubation for an additional 1 h at 4° C. with rocking. Beads were separated by centrifugation at 8000×g for 2 min. Supernatants were removed, and beads were washed with 1 ml of incubation buffer. Separation and washing were repeated three times. A final wash was performed in PBS and 0.05% Tween 20 to remove excess BSA. Centrifuged beads were combined with 25 μl of reducing SDS-PAGE loading buffer and heated as described above. 10 μl of each sample/loading buffer mixture was loaded onto 10-20% Tricine gels (Invitrogen) and electrophoresed at 125 V for 35 min. Immunoblotting was carried out as described above using either biotinylated anti-MBP mAb 384 or biotinylated anti-Aβ mAb 3D6 as primary antibody. Experiments were performed in triplicate.

Aβ40DI = Aβ40DI (Homo sapiens, UniProt P05067, D694N/E693Q); assay: Quantitative immunoblot analysis of Aβ40DI fibril assembly; type: biochemical; details: 12.5 μM Aβ40DI, 1.56 μM MBP, up to 12 h
Protocol: Aβ40DI (12.5 μM) was incubated in the absence (A and D) or presence (C and F) of 1.56 […] purified MBP. Bovine a-lactalbumin (Lalb. 1.56 μM) was included as a negative control (B and E). Aliquots were removed at specific time points and analyzed by quantitative immunoblot analysis using anti-Aβ mAb 6E10. […] Data represent the means±S.D. of three separate experiments.
Briefly, samples were heated at 90° C. for 5 min in reducing SDS-PAGE loading buffer, loaded onto gels, and electrophoresed. Gels were transferred to Hybond ECL nitrocellulose membranes (Amersham Biosciences) at 50 V overnight at 4° C. Membranes were blocked in PBS containing 5% milk or bovine serum albumin (BSA; used with biotinylated primary antibodies) at room temperature for 1 h and washed 3×10 min with PBS and 0.05% Tween 20. Membranes were incubated with primary antibodies for 1 h and washed as described above. Next, the membranes were incubated with either horseradish peroxidase-conjugated sheep anti-mouse IgG or horseradish peroxidase-conjugated streptavidin (both from Amersham Biosciences) for 1 h and washed. Detection was accomplished using ECL Western blotting substrate (Pierce), and images were captured either on film or using a VersaDoc 3000 imaging system (Bio-Rad) and quantitated with the manufacturer's Quantity One software.

Aβ40WT [1] = biological target: T1, Aβ40WT (Homo sapiens, UniProt P05067); assay: Co-immunoprecipitation of MBP with Aβ40WT; type: binding; details: purified MBP
Protocol: as §1

Aβ40WT [2] = biological target: T1, Aβ40WT; assay: Affinity chromatography of human brain homogenate on Aβ40WT column; type: binding
Protocol: For some embodiments of the invention, it may be advantageous to work with purified isolates of mutant and wild-type forms of Aβ. The affinity chromatography method used in the development of embodiments of the instant invention to obtain such isolates is exemplary: To prepare affinity resins, biotinylated wild-type Aβ40 peptide (Aβ40WT) and Aβ40DI were each redissolved in 20 mM NaHCO3 buffer (pH 8.5) and applied to ImmunoPure immobilized streptavidin beads (Pierce) following the manufacturer's instructions. Immobilized ligands were cross-linked with 2 mM bis(sulfosuccinimidyl) suberate (Pierce) for 30 min with rocking at room temperature in 20 mM NaHCO3 (pH 8.5). Crosslinking reactions were stopped by the addition of 1 M Tris-HCl (pH 7.4) to a final concentration of 20 mM. Homogenates of normal human brain frontal cortex (which may obtained as biopsies) were prepared in Tris-buffered saline (50 mM Tris-HCl and 200 mM NaCl (pH 7.4)) containing complete protease inhibitor cocktail (Roche). Homogenates were centrifuged at 12,000×g for 30 min, and supernatants were loaded onto Tris-buffered saline-equilibrated affinity columns (0.8×4 cm) under gravity flow. […] Fractions were analyzed by SDS-PAGE on 10-20% Tris/glycine gradient gels. […]

wild-type Aβ40 (Aβ40WT) = wild-type Aβ40 (Aβ40WT) (Homo sapiens, UniProt P05067); assay: Surface plasmon resonance binding to wild-type Aβ40; details: compared with CAA mutant Aβ40
Protocol: All runs were performed on a Biacore 2000 instrument using 10 mM HEPES (pH 7.4), 150 mM NaCl, 3 mM EDTA, and 0.005% (v/v) Tween 20 as running buffer and diluent. Streptavidiri was conjugated to the surface of three flow cells of a CM5 chip at 10 μl/min using amine coupling chemistry to a final average response level of 1890.2 response units. N-terminally biotinylated Aβ peptides were resuspended in Me2SO to 2.5 mM and serially diluted to 13 nM immediately before application. Biotinylated Aβ40WT and Aβ40DI were bound to individual flow cells at 10 μl/min to achieve an average relative response level of 157.1 response units, leaving flow cell 1 as reference. […] The resultant Rmax of these surfaces was ˜700 response units with MBP as analyte. Purified MBP was passed over all four flow cells at 5, 10, 25, 50, and 100 nM at a flow rate of 30 μl/min for kinetic measurements. […] Surfaces were regenerated with 0.2 M glycine (pH 2.0) and 150 mM NaCl between runs. The resulting sensorgrams were analyzed by BIAanalysis software. Triplicate concentration series were used for each surface.

B1: myelin basic protein (protein)
chain: ASQKRPSQRHGSKYLATASTMDHARHGFLPRHRDTGILDSIGRFFGGDRGAPKRGSGKDSHHPARTAHYGSLPQKSHGRTQDENPVVHFFKNIVTPRTPPPSQGKGRGLSLSRFSWGAEGQRPGFGYGGRASDYKSAHKGFKGVDAQGTLSKIFKLGGRDSRSGSPMARR
notes: myelin basic protein, major form about 18.5 Kd (170 residues); purified protein
interaction in co-immunoprecipitation (Aβ42WT): interacts | accumulation of high molecular mass species of Aβ40DI (Aβ40DI): allows no high molecular mass species of Aβ40DI to accumulate | binding by immunoprecipitation (Aβ40WT [1]): bound | capture on Aβ40WT affinity column (Aβ40WT [2]): not captured | binding to wild-type Aβ40 (wild-type Aβ40 (Aβ40WT)): Significantly weaker binding
